# Values of other authors as cited in paper PMC12990809.
# Tests used:
# Experiment in all cases: pulldown
# Settings in all cases: 20 nM protein, 1.5 uM RNA pool; 20 mM HEPES pH 7.8, 70 mM KCl, 10 mM NaCl, 10% glycerol, 2 mM DTT, 0.1 ug/uL BSA; 30 min, 4 C (protocol of this paper; not …); cited from earlier work
# [1] = molecular target: T1, PFF0320c (Plasmodium falciparum) (UniProt C6KSR3)
# T1 sequence: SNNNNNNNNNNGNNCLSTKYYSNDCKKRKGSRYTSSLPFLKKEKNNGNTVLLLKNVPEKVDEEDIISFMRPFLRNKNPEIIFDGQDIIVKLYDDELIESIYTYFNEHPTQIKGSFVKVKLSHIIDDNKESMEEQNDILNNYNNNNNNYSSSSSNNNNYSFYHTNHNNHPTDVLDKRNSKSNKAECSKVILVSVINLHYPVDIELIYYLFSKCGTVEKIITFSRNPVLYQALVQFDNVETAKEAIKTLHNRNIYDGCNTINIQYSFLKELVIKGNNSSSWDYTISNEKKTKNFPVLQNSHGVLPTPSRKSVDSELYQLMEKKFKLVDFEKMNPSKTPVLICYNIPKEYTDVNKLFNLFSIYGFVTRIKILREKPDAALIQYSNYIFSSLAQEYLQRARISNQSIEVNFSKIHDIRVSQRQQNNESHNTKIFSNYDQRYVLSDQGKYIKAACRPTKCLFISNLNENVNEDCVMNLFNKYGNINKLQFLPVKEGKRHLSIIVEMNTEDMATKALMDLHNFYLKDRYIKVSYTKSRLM
# [2] = molecular target: T2, Phyra93644 G140S (Phytophthora ramorum) (UniProt H3HB24)
# T2 sequence: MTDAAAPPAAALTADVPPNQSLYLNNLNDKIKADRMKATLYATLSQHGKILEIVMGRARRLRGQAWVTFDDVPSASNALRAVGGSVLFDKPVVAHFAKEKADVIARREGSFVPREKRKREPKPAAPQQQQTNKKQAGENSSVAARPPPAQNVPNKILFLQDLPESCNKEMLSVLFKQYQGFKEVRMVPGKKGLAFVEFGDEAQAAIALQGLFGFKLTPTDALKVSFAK
# [3] = molecular target: T3, NCU02404 (Neurospora crassa) (UniProt V5ILJ4)
# T3 sequence: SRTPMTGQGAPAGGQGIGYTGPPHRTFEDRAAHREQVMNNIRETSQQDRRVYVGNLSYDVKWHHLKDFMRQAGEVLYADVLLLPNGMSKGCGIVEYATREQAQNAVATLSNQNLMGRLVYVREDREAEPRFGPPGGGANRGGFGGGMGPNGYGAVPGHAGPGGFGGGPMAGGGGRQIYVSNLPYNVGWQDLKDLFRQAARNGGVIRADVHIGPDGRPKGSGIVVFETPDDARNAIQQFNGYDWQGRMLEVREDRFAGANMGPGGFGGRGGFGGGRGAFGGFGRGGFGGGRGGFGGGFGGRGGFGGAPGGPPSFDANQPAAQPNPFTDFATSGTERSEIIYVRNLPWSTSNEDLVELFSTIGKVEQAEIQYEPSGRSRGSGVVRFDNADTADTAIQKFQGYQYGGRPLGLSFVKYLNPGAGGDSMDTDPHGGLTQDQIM
# [4] = molecular target: T4, Tb11.03.0170 (Trypanosoma brucei) (UniProt Q387F5)
# T4 sequence: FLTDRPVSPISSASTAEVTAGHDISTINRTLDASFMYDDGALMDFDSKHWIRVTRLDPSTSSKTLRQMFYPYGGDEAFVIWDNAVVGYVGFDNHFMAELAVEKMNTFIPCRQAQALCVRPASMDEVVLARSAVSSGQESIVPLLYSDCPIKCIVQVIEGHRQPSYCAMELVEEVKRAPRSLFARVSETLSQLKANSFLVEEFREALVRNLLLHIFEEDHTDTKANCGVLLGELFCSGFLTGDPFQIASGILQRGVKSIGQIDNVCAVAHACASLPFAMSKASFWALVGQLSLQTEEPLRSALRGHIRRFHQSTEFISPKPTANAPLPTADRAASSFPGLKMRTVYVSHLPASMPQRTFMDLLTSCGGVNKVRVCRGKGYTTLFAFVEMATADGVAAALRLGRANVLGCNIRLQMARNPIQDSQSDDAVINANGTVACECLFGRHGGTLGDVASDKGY
# Pcbp1 (Mus musculus) = Pcbp1 (Mus musculus) (UniProt P60335)
# [5] = molecular target: T5, TVAG_514790 (Trichomonas vaginalis) (UniProt A2GMP0)
# T5 sequence: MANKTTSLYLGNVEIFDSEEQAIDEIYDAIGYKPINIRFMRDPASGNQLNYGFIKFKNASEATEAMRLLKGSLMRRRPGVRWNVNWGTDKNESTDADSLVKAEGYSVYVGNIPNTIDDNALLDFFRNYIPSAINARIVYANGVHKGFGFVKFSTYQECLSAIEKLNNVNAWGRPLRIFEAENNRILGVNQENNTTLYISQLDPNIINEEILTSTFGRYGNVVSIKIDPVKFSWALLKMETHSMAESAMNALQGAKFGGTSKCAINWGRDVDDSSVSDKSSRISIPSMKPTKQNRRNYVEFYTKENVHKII
# rbm4.3 (Danio rerio) = molecular target: T6, rbm4.3 (Danio rerio) (UniProt A0ACM8Q3W8)
# T6 sequence: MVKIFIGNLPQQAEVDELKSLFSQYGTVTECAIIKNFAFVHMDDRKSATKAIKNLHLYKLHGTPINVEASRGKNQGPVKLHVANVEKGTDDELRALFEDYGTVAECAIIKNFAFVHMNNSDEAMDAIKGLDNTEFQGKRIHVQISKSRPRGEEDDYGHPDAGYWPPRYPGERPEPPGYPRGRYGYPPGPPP
# [6] = molecular target: T7, estExt_gwp_gw1.C_700168 (Physcomitrella patens) (UniProt A0A2K1JQP1)
# T7 sequence: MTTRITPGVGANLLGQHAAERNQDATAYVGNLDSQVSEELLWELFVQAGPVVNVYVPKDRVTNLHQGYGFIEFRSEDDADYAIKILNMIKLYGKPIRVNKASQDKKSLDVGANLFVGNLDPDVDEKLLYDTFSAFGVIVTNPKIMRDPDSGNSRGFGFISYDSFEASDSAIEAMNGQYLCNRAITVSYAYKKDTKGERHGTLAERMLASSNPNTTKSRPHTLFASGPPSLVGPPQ
# [7] = molecular target: T8, Smp_067420 (Schistosoma mansoni) (UniProt G4LZ80)
# T8 sequence: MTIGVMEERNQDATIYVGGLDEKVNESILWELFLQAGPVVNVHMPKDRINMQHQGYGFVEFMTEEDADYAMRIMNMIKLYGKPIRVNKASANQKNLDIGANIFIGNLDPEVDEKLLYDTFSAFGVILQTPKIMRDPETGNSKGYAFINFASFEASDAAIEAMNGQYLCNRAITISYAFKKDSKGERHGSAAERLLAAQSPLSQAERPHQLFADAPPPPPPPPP
# [8] = molecular target: T9, PF10_0214 (Plasmodium falciparum) (UniProt Q8IJI3)
# T9 sequence: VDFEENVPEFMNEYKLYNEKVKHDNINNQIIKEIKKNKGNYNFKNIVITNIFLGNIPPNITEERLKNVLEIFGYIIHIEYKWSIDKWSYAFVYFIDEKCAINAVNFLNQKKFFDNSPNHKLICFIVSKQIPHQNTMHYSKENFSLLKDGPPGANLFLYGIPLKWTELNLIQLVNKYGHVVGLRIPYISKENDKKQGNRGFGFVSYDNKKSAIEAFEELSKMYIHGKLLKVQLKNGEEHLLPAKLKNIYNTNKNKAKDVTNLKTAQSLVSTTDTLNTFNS
# Rbm45 (Mus musculus) = molecular target: T10, Rbm45 (Mus musculus) (UniProt Q8BHN5)
# T10 sequence: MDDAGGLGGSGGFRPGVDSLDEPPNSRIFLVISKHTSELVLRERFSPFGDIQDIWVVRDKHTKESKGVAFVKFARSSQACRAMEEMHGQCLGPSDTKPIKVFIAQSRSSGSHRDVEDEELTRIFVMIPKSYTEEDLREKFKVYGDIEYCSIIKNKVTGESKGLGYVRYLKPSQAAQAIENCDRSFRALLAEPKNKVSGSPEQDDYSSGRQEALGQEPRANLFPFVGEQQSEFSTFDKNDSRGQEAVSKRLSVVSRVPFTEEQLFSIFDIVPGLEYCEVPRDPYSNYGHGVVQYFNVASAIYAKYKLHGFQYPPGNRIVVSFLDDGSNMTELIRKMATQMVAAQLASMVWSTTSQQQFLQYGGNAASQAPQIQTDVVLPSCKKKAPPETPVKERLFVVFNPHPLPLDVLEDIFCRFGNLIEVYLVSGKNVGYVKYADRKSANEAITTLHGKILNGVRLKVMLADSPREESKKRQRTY
# [9] = molecular target: T11, MAL13P1.35 (Plasmodium falciparum) (UniProt C0H5A4)
# T11 sequence: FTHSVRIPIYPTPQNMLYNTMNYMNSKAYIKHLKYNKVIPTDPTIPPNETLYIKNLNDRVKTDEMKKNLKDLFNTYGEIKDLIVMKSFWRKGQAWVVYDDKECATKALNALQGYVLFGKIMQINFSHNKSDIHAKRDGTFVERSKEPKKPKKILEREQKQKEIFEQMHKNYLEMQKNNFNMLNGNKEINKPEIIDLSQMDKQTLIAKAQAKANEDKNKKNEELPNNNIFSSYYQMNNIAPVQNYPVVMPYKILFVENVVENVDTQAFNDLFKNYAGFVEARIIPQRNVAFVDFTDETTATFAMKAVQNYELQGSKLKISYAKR
# [10] = molecular target: T12, fox-1 ins385_GNEYIMYHQAKQQELP (Caenorhabditis elegans) (UniProt Q10572)
# T12 sequence: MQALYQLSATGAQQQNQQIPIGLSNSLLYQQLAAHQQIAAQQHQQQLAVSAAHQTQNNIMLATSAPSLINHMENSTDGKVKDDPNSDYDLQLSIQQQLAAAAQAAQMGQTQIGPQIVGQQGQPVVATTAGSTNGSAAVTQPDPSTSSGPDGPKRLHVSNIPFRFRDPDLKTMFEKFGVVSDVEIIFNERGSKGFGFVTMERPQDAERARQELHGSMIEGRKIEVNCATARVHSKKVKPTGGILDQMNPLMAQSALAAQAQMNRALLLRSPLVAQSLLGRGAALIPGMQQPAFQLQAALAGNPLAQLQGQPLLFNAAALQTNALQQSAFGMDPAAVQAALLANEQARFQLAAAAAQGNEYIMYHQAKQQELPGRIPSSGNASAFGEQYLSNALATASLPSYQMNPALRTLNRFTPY
# [11] = molecular target: hnrnpabb (Tetraodon nigroviridis) (UniProt Q4SDS6)
# [12] = molecular target: T13, Tb11.01.7680 (Trypanosoma brucei) (UniProt Q381I4)
# T13 sequence: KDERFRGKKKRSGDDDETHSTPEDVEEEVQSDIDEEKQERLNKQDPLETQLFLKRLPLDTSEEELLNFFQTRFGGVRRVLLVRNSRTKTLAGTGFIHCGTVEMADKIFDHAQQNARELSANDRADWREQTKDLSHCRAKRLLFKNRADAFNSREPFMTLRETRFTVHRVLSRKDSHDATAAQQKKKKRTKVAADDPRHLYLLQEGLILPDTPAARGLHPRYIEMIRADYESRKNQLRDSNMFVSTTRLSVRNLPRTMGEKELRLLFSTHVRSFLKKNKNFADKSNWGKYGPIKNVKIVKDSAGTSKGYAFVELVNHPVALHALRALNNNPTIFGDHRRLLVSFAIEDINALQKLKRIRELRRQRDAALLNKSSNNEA
# pcbp2 (Danio rerio) = pcbp2 (Danio rerio) (UniProt A0A8M1PCB6)
# [13] = molecular target: T14, Tb927.3.3670 (Trypanosoma brucei) (UniProt Q57WA3)
# T14 sequence: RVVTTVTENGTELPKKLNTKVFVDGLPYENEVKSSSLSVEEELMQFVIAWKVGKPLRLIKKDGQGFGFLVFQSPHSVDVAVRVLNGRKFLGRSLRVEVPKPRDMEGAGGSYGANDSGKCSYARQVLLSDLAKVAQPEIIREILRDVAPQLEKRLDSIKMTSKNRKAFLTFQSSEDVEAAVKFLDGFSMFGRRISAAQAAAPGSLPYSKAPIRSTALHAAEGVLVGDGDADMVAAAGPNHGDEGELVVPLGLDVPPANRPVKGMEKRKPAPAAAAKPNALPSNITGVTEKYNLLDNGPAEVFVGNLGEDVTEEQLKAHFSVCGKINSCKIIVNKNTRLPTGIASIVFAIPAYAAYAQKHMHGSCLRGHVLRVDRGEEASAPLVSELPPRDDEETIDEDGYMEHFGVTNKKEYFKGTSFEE
# Sequence of hnrnpabb (Tetraodon nigroviridis) (Q4SDS6 entry or part of it): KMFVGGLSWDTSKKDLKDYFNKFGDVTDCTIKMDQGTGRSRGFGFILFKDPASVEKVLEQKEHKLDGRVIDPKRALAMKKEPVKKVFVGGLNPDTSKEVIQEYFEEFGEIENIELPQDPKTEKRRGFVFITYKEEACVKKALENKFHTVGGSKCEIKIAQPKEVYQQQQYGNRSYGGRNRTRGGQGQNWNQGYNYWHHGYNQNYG
# Sequence of pcbp2 (Danio rerio) (A0A8M1PCB6 entry or part of it): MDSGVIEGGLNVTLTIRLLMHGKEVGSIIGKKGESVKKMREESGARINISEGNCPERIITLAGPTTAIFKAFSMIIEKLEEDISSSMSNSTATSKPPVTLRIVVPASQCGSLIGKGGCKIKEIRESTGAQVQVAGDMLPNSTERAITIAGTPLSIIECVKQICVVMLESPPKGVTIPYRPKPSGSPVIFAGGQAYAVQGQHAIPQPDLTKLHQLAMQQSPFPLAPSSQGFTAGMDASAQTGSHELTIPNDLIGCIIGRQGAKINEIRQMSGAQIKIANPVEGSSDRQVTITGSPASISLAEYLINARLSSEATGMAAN
# Sequence of Pcbp1 (Mus musculus) (P60335 whole entry): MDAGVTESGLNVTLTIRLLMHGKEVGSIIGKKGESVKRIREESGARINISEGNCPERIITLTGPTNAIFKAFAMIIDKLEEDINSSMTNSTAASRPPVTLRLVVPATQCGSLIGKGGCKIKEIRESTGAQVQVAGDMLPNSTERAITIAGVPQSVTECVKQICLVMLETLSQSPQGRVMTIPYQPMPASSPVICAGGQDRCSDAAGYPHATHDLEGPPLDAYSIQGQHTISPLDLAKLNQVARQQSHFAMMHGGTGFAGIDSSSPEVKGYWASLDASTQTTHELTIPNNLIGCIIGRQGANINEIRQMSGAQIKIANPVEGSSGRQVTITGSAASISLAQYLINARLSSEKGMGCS
sequence,measurement,setting,value
ACUAAAC [RNAcompete motif RNCMPT00235],binding signal (z-score (mean of top ten 7-mers)),[1],8.17
UUGCAC [RNAcompete motif RNCMPT00249],binding signal (z-score (mean of top ten 7-mers)),[2],12
GGAGGA [RNAcompete motif RNCMPT00238],binding signal (z-score (mean of top ten 7-mers)),[3],6.21
UUCACAC [RNAcompete motif RNCMPT00251],binding signal (z-score (mean of top ten 7-mers)),[4],9.19
CUUUCCC [RNAcompete motif RNCMPT00239],binding signal (z-score (mean of top ten 7-mers)),Pcbp1 (Mus musculus),6.21
UUUUUU [RNAcompete motif RNCMPT00236],binding signal (z-score (mean of top ten 7-mers)),[5],10.3
ACGACG [RNAcompete motif RNCMPT00248],binding signal (z-score (mean of top ten 7-mers)),rbm4.3 (Danio rerio),10.2
GAUGGAGU [RNAcompete motif RNCMPT00237],binding signal (z-score (mean of top ten 7-mers)),[6],9.26
AUUUUUU [RNAcompete motif RNCMPT00232],binding signal (z-score (mean of top ten 7-mers)),[7],8.88
AUUCCGA [RNAcompete motif RNCMPT00240],binding signal (z-score (mean of top ten 7-mers)),[8],11.3
GACGAC [RNAcompete motif RNCMPT00241],binding signal (z-score (mean of top ten 7-mers)),Rbm45 (Mus musculus),10.6
AUUACAC [RNAcompete motif RNCMPT00234],binding signal (z-score (mean of top ten 7-mers)),[9],15.8
UGCAUG [RNAcompete motif RNCMPT00017],binding signal (z-score (mean of top ten 7-mers)),[10],24.8
AGAUAGA [RNAcompete motif RNCMPT00245],binding signal (z-score (mean of top ten 7-mers)),[11],8.14
AGUAGAU [RNAcompete motif RNCMPT00252],binding signal (z-score (mean of top ten 7-mers)),[12],7.34
CUUUCCC [RNAcompete motif RNCMPT00246],binding signal (z-score (mean of top ten 7-mers)),pcbp2 (Danio rerio),6.92
GAAGGA [RNAcompete motif RNCMPT00230],binding signal (z-score (mean of top ten 7-mers)),[13],6.23
